Molecular target: Hcf106 G6CV14C (Pisum sativum)
Test: cross-linking; disulfide cross-linking with 1 mM CuP for 5 min of [3H]Hcf106 Cys variants integrated into NEM-pretreated thylakoid; non-reducing SDS-PAGE, fluorography

With Hcf106 G6CV14C (natural protein) the stoichiometry N was < 8.
